Consider 1 substance from patent US20020103136.

In data set [1] the test system is Ac-SSChgQ-SP-(HCAP)-(dAc)-VIN.
Data set [2] concerns Ac-(4-trans-L-Hyp)SSChgQ-SPheol-(dAc)-VIN.
Data set [3] has as its system Ac-4-trans-L-Hyp-SSChgQ-SS-(HCAP)-(dAc)-VIN.
In data set [4] the test system is Ac-AbuSSChgQ-SP-(HCAP)-(dAc)-VIN.
The test system of data set [5] is Ac-SChgQS-Abu-(HCAP)-VIN.
For data set [6], the system named is Ac-SChgQSS(PIP)-(HCAP)-dAc-VIN.
Data set [7] has as its system Ac-AbuSSChgQ-S-(HCAP)-VIN.
Data set [8] deals with Ac-4-trans-L-HypSSChgQS-cyclohexylalaninol-(dAc)-VIN.
Data set [9] relates to Ac-SSChgQ-SSP-(HCAP)-dAc-VIN.
The test system of data set [10] is Ac-4-trans-L-HypSSChgQSP(HCAP)-VIN.
Data set [11] deals with Ac-SChgQ-SP-(HCAP)-(dAc)-VIN.
The test system of data set [12] is Ac-SChgQSS(HCAP)-dAc-VIN.
In data set [13] the test system is Ac-SChgQ-SSP-(HCAP)-VIN.
The test system of data set [14] is Ac-SChgQSS-gammaAbu-(HCAP)-dAc-VIN.
The subject of data set [15] is Ac-SChgQSS-Sar-(HCAP)-dAc-VIN.
The subject of data set [16] is N-hydroxyacetyl-AbuSSChgQ-SP-(HCAP)-(dAc)-VIN.
Data set [17] deals with Ac-SChgQ-SS(4-trans-L-Hyp)-(HCAP)-dAc-VIN.

free prostate specific antigen (PSA): the Time to 50% Substrate Cleavage by York PSA amounted to 30 min in [1]; 25 min in [2]; 17 min in [3]; 18 min in [4]; 60 min in data set [5]; 22 min in [6]. Moreover, the Time to 50% Substrate Cleavage by York PSA in data set [8] stood at 10 min; in [9], 8 min; in data set [10], 8 min; in data set [11] it was 13 min; in data set [12], 12 min; in data set [13] it was 8 min. The Time to 50% Substrate Cleavage by York PSA in data set [14] turned out to be 12 min; in data set [15] it was 13 min; in [16], 11 min; in [17] it was 7 min. The “Substrate cleavage by York PSA at 1 hour (printed in the column 'Time to 50% Substrate Cleavage by York PSA (Min)')” value in data set [7] stood at 1 HOUR = 28%.
